Common to all, as to format: physicochemical
Data set [1] in a line: Solution appearance of Composition C batches. The protocol:
Physical properties of select Composition C batches were measured as described in the Methods section.

The nature of data set [2]: HPSEC trace / molecular weight distribution of different Compound D loading conjugates. The protocol: (§1) The molecular weight distributions of Composition C conjugate, PHF and PHF-GA were measured by high performance size exclusion chromatography (HPSEC) with RI detection. Separation was carried out on a GE Healthcare Superose 6 column using 50 mM pH=7.4 phosphate 0.9% NaCl as an fluent. Dextran standards (American Polymer Standards Corporation) were used to establish a calibration curve of known molecular weight vs. retention time. Molecular weight distributions (weight average molecular weight (“Mw”), D90, D50, D10) were calculated based on the polysaccharide standard curve.
Composition C batches were analyzed by high performance size exclusion chromatography. […] Batches B and E have the additional desirable property of relatively high Compound D loading; approximately 3-fold higher than Batches C and F.
A general note: SEC sorts molecules by how far they enter the pores of the column.

Data set [3] in a line: Peak molecular weight at ~3 and ~60 mg/ml (concentration dependence). The method, then: as §1
Peak molecular weight values were measured for Composition C batches in solution at ˜3 mg/ml and at ˜60 mg/ml.

These results are taken from patent US20130189218A1, “PHARMACEUTICAL FORMULATIONS FOR FUMAGILLIN DERIVATIVE-PHF CONJUGATES” (Mersana Therapeutics, Inc., priority 2011, published 2013).

Take `CO[C@H]1[C@H](C2(C)OC2CC=C(C)C)[C@]2(CC[C@H]1OC(=O)NCc1ccc(NC(=O)CCCC(=O)O)cc1)CO2` (some centres unmarked) [Compound D]: the “Solution Appearance” value in data set [1] is listed as “Very slight”. Further, the “SEC Trace” value in data set [2] was 2 peaks (high. In addition, in data set [3] (Mp at ~60 mg/ml vs ~3 mg/ml), the “% Change” value is recorded as “+58%”. Also, the Mp at ~3 mg/ml in data set [3] (~3 mg/ml in solution) was 57.8 kDa. The Mp at ~60 mg/ml in data set [3] (~60 mg/ml in solution) worked out at 91.2 kDa.
